The results in this text go back to article PMC4456287 (Structure (London, England : 1993), 2015).

The Kd is the concentration at which binding is half-saturated.

Where “and” joins values, the source holds several entries; their conditions need not be identical. Identical values can stand only once. Where only a bound is given, the exact number is not on record here.

Targets include human MRG15 MRG L168A (human, UniProt Q9UBU8-2 155-323, alanine mutation of L168); human MRG15 MRG L287A (human, UniProt Q9UBU8-2 155-323, alanine mutation of L287); human MRG15 MRG W172A (human, UniProt Q9UBU8-2 155-323, alanine mutation of W172).
Experiment in all cases: ITC
The target of assay [1] is Alanine mutations of MRG15 L168 and W172 (human).
Assay [2] concerns the target human MRG15 MRG domain (residues 155-323) (human, UniProt Q9UBU8-2 155-323).

Chain of human MRG15 MRG domain (residues 155-323) (Q9UBU8 194-362): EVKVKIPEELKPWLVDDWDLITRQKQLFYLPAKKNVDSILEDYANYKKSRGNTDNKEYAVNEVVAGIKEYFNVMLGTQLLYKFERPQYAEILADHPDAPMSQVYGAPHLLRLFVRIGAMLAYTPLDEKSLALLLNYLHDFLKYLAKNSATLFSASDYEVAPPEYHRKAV
Chain of human MRG15 MRG L168A (Q9UBU8 194-362 L207A): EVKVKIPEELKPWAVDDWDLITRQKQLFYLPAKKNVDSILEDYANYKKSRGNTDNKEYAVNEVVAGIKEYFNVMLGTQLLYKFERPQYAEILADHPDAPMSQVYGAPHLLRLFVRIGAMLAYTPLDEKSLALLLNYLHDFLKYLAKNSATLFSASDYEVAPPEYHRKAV
Chain of human MRG15 MRG L287A (Q9UBU8 194-362 L326A): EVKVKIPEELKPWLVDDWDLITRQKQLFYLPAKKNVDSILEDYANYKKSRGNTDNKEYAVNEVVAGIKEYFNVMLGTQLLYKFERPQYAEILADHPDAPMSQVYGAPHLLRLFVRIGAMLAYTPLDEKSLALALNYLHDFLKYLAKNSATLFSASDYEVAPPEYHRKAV
Chain of human MRG15 MRG W172A (Q9UBU8 194-362 W211A): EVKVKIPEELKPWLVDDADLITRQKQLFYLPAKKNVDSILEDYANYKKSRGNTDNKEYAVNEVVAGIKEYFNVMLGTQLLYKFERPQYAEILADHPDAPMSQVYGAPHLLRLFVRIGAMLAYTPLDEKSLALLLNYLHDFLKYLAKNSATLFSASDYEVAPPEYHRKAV

On to “human MRGBP MRG-binding domain (residues 69-119) (from UniProt Q9NV56 69-119) (domain or fragment)”, for which the fold reduction in binding affinity in assay [1] is 7 fold and 8 fold.

B1: human PALB2 MBD (residues 579-629) (domain or fragment, UniProt Q86YC2 579-629, looked up)
chain: AYLSLDDDAFTAPFHRDGMLSLKQLLSFLSITDFQLPDEDFGPLKLEKVKS
As to B1, in assay [2], the Kd is about 20 nM.

B2: human MRGBP MRG-binding domain (residues 69-119) (domain or fragment, UniProt Q9NV56 69-119, looked up)
chain: GRQVPSKVIWDHLSTMYDMQALHESEILPFPNPERNFVLPEEIIQEVREGK
In the case of B2, the binding result in the assay with human MRG15 MRG L168A and in the assay with human MRG15 MRG W172A was “binds” throughout. Further, the Kd in assay [2] was about 60 nM. For the same molecule, in the assay with human MRG15 MRG L287A, the “fold effect on binding” value is over 2 fold.

B3: human MRGBP MBD M84A (domain or fragment, UniProt Q9NV56 69-119, looked up)
chain: GRQVPSKVIWDHLSTAYDMQALHESEILPFPNPERNFVLPEEIIQEVREGK
On to B3, for which, in assay [2], the “fold decrease in binding affinity relative to wild-type” value is about 3 fold.

B4: human MRGBP MBD I112A (domain or fragment, UniProt Q9NV56 69-119, looked up)
chain: GRQVPSKVIWDHLSTMYDMQALHESEILPFPNPERNFVLPEEIAQEVREGK
Consider B4, for which, in assay [2], the “fold decrease in binding affinity relative to wild-type” value is about 13 fold.
